In IntAct's records for PubMed 31515488:

B1: Proto-oncogene serine/threonine-protein kinase mos (Homo sapiens), P00540 (parent)
chain: MPSPLALRPYLRSEFSPSVDARPCSSPSELPAKLLLGATLPRAPRLPRRLAWCSIDWEQVCLLQRLGAGGFGSVYKATYRGVPVAIKQVNKCTKNRLASRRSFWAELNVARLRHDNIVRVVAASTRTPAGSNSLGTIIMEFGGNVTLHQVIYGAAGHPEGDAGEPHCRTGGQLSLGKCLKYSLDVVNGLLFLHSQSIVHLDLKPANILISEQDVCKISDFGCSEKLEDLLCFQTPSYPLGGTYTHRAPELLKGEGVTPKADIYSFAITLWQMTTKQAPYSGERQHILYAVVAYDLRPSLSAAVFEDSLPGQRLGDVIQRCWRPSAAQRPSARLLLVDLTSLKAELG
partner: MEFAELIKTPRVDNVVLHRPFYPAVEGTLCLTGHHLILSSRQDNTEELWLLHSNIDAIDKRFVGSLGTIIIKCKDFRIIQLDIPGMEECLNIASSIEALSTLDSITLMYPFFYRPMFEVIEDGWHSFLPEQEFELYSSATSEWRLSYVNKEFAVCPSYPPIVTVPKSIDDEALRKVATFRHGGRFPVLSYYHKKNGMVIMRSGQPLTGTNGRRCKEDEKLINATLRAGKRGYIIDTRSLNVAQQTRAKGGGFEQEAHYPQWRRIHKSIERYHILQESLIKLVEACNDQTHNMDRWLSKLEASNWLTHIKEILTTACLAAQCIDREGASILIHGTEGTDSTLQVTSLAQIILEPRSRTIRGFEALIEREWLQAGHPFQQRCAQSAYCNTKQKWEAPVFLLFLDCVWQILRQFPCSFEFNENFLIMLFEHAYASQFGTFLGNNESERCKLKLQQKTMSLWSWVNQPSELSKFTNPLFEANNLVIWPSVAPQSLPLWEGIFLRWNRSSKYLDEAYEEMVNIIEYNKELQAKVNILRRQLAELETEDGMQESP
B2: Protein unc-45 homolog A (Homo sapiens), Q9H3U1 (parent)
chain: MTVSGPGTPEPRPATPGASSVEQLRKEGNELFKCGDYGGALAAYTQALGLDATPQDQAVLHRNRAACHLKLEDYDKAETEASKAIEKDGGDVKALYRRSQALEKLGRLDQAVLDLQRCVSLEPKNKVFQEALRNIGGQIQEKVRYMSSTDAKVEQMFQILLDPEEKGTEKKQKASQNLVVLAREDAGAEKIFRSNGVQLLQRLLDMGETDLMLAALRTLVGICSEHQSRTVATLSILGTRRVVSILGVESQAVSLAACHLLQVMFDALKEGVKKGFRGKEGAIIVDPARELKVLISNLLDLLTEVGVSGQGRDNALTLLIKAVPRKSLKDPNNSLTLWVIDQGLKKILEVGGSLQDPPGELAVTANSRMSASILLSKLFDDLKCDAERENFHRLCENYIKSWFEGQGLAGKLRAIQTVSCLLQGPCDAGNRALELSGVMESVIALCASEQEEEQLVAVEALIHAAGKAKRASFITANGVSLLKDLYKCSEKDSIRIRALVGLCKLGSAGGTDFSMKQFAEGSTLKLAKQCRKWLCNDQIDAGTRRWAVEGLAYLTFDADVKEEFVEDAAALKALFQLSRLEERSVLFAVASALVNCTNSYDYEEPDPKMVELAKYAKQHVPEQHPKDKPSFVRARVKKLLAAGVVSAMVCMVKTESPVLTSSCRELLSRVFLALVEEVEDRGTVVAQGGGRALIPLALEGTDVGQTKAAQALAKLTITSNPEMTFPGERIYEVVRPLVSLLHLNCSGLQNFEALMALTNLAGISERLRQKILKEKAVPMIEGYMFEEHEMIRRAATECMCNLAMSKEVQDLFEAQGNDRLKLLVLYSGEDDELLQRAAAGGLAMLTSMRPTLCSRIPQVTTHWLEILQALLLSSNQELQHRGAVVVLNMVEASREIASTLMESEMMEILSVLAKGDHSPVTRAAAACLDKAVEYGLIQPNQDGE
B3: Iron-sulfur cluster co-chaperone protein HscB (Homo sapiens), Q8IWL3 (parent)
chain: MWRGRAGALLRVWGFWPTGVPRRRPLSCDAASQAGSNYPRCWNCGGPWGPGREDRFFCPQCRALQAPDPTRDYFSLMDCNRSFRVDTAKLQHRYQQLQRLVHPDFFSQRSQTEKDFSEKHSTLVNDAYKTLLAPLSRGLYLLKLHGIEIPERTDYEMDRQFLIEIMEINEKLAEAESEAAMKEIESIVKAKQKEFTDNVSSAFEQDDFEEAKEILTKMRYFSNIEEKIKLKKIPL
B4: SH2 domain-containing protein 4A (Homo sapiens), Q9H788 (parent)
chain: MLKQILSEMYIDPDLLAELSEEQKQILFFKMREEQIRRWKEREAAMERKESLPVKPRPKKENGKSVHWKLGADKEVWVWVMGEHHLDKPYDVLCNEIIAERARLKAEQEAEEPRKTHSEEFTNSLKTKSQYHDLQAPDNQQTKDIWKKVAEKEELEQGSRPAPTLEEEKIRSLSSSSRNIQQMLADSINRMKAYAFHQKKESMKKKQDEEINQIEEERTKQICKSWKEDSEWQASLRKSKAADEKRRSLAKQAREDYKRLSLGAQKGRGGERLQSPLRVPQKPERPPLPPKPQFLNSGAYPQKPLRNQGVVRTLSSSAQEDIIRWFKEEQLPLRAGYQKTSDTIAPWFHGILTLKKANELLLSTGMPGSFLIRVSERIKGYALSYLSEDGCKHFLIDASADAYSFLGVDQLQHATLADLVEYHKEEPITSLGKELLLYPCGQQDQLPDYLELFE
B5: Actin-associated protein FAM107A (Homo sapiens), O95990 (parent)
chain: MYSEIQRERADIGGLMARPEYREWNPELIKPKKLLNPVKASRSHQELHRELLMNHRRGLGVDSKPELQRVLEHRRRNQLIKKKKEELEAKRLQCPFEQELLRRQQRLNQLEKPPEKEEDHAPEFIKVRENLRRIATLTSEEREL
partner: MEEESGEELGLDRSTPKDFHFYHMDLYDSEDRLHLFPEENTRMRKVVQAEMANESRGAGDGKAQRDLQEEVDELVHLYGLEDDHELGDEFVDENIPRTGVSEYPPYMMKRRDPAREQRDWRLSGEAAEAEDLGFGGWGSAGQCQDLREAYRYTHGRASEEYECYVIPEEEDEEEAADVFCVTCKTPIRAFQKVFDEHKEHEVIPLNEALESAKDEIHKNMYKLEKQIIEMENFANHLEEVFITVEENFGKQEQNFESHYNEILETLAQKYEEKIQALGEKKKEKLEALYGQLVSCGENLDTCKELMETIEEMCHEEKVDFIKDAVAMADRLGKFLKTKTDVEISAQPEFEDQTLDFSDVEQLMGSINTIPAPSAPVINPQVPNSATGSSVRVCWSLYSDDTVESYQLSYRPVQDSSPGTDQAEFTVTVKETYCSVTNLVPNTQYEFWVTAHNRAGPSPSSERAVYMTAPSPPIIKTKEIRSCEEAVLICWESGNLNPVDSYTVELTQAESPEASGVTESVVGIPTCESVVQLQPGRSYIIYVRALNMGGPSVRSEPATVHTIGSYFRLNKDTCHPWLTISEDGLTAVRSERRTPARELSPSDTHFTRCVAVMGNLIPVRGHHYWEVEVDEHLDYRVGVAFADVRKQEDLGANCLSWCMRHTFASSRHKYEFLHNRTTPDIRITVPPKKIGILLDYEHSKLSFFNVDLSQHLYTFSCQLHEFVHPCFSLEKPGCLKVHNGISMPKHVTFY

Variants of: B1
Settings: with mtmr9_human MTMR9, Q96QG7

Variant | effect of a mutation on the interaction
I55V | with no effect

Variants of: B2
Settings: with trim1_human MID2, Q9UJV3
Chain of trim1_human MID2, Q9UJV3 (Q9UJV3 whole entry): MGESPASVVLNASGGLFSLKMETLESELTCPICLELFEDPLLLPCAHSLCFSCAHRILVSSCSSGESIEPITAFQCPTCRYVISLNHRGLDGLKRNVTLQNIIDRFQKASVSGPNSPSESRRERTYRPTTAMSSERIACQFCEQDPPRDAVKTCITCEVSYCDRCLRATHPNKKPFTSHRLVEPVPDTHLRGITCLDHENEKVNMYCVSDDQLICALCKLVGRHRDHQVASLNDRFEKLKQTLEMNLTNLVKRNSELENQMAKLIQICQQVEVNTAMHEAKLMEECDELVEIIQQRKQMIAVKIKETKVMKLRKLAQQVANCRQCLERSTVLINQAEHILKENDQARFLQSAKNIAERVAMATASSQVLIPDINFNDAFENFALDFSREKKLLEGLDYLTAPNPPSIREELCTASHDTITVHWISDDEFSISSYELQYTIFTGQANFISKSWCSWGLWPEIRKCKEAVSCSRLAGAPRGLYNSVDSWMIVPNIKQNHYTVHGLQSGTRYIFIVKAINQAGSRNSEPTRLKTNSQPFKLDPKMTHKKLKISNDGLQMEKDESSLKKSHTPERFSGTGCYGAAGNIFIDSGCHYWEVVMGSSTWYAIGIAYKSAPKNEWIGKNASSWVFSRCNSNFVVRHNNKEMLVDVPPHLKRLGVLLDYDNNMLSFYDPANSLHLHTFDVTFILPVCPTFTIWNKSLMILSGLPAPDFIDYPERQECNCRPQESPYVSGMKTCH

Variant | effect of a mutation on the interaction
T796M | with no effect

Variants of: B2
Settings: with max_human MAX

Variant | effect of a mutation on the interaction
Q251E | with no effect

Variants of: B3
Settings: with atrap_human AGTRAP

Variant | effect of a mutation on the interaction
I163M | disrupting interaction strength

Variants of: B4
Settings: with tfp11_human TFIP11, Q9UBB9
Chain of tfp11_human TFIP11, Q9UBB9 (Q9UBB9 whole entry): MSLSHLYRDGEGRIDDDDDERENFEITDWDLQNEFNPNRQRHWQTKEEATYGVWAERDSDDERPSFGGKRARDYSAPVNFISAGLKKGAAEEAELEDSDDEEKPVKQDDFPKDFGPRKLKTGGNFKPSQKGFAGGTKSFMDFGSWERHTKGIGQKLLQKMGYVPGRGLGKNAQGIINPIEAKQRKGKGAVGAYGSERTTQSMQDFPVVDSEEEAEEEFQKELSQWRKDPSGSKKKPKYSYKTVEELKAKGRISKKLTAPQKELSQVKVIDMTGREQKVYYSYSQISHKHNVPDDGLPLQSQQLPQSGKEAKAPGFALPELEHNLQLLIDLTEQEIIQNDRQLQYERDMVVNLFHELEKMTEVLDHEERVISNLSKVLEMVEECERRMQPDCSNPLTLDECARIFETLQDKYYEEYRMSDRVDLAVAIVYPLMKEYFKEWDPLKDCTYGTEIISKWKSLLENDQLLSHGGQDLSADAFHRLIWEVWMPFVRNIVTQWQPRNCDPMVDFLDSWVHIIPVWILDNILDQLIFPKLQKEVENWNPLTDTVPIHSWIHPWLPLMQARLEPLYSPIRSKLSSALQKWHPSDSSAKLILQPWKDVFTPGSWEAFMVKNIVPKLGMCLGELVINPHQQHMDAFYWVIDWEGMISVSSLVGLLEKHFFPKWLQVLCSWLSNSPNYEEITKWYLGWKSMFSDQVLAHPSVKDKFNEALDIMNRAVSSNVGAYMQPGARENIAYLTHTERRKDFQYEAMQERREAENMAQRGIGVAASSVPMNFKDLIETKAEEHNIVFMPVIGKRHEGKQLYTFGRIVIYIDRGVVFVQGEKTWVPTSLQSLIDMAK

Variant | effect of a mutation on the interaction
K303R | with no effect
G263A | with no effect
E216G | with no effect

Variants of: B4
Settings: with tacc1_human TACC1, O75410
Chain of tacc1_human TACC1, O75410 (O75410 whole entry): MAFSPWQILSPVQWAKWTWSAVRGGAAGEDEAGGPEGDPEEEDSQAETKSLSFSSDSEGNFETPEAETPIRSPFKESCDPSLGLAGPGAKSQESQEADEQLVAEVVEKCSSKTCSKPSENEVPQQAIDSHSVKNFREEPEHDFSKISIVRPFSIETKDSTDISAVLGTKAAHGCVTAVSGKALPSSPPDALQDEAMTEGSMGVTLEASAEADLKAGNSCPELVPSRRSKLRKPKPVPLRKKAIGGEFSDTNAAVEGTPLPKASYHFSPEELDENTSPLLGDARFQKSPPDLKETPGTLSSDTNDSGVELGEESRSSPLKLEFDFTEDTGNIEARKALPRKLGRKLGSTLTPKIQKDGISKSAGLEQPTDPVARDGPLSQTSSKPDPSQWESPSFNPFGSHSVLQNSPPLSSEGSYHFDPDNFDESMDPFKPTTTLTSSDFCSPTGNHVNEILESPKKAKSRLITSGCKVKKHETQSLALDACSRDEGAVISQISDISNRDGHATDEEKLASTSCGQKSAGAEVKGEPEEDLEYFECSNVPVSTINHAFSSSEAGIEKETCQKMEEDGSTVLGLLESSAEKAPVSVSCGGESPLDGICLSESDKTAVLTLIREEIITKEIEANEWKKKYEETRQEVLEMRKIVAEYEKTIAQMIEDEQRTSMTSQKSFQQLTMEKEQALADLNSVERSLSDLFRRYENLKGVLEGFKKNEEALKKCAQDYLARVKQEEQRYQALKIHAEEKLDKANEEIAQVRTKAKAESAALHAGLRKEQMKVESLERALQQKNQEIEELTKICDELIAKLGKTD

Variant | effect of a mutation on the interaction
K303R | with no effect
G263A | with no effect
E216G | with no effect

Variants of: B4
Settings: with ldoc1_human LDOC1, O95751
Chain of ldoc1_human LDOC1, O95751 (O95751 whole entry): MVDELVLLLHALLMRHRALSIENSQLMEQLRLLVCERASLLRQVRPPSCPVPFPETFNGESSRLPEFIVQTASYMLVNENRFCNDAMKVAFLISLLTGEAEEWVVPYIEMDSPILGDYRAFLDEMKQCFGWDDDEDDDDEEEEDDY

Variant | effect of a mutation on the interaction
K303R | with no effect
G263A | with no effect
E216G | with no effect

Variants of: B5
Settings: with fsd2_human FSD2, A1L4K1

Variant | effect of a mutation on the interaction
E141Q | disrupting interaction strength
